In patent US10363320B2, “Conjugate comprising oxyntomodulin and an immunoglobulin fragment, and use thereof” (HANMI SCIENCE CO., LTD, priority 2011, dated 2019):

How the values were obtained:
[1] = taken for 1 year; cited from earlier work
[2] = in vivo; cited from earlier work
[3] = biological target: T1, human GLP-1 receptor (Homo sapiens, UniProt P43220); assay: cAMP response in CHO cell line expressing human GLP-1 receptor (CHO/GLP-1R); assay type: cell-based; settings: Table 3, Fc conjugates, GLP-1, glucagon, 37° C. for 1 hour
T1 construct: host or cells: CHO DG44
Description: The PCR product was cloned into the known animal cell expression vector x0GC/dhfr to prepare a recombinant vector x0GC/GLP1R.
CHO DG44 cell line cultured in DMEM/F12 (10% FBS) medium was transfected with the recombinant vector x0GC/GLP1R using LIPOFECTAMINE® (INVITROGEN®, USA), and cultured in a selection medium containing 1 mg/mL G418 and 10 nM methotraxate.
(§1) The cultured cells were washed with KRB buffer and suspended in 40 ml of KRB buffer containing 1 mM IBMX, and left at room temperature for 5 minutes. […] Then, 20 mL of cell lysis buffer was added for cell lysis, and the cell lysates were applied to a cAMP assay kit (Molecular Device, USA) to measure cAMP concentrations. EC50 values were calculated therefrom, and compared to each other.
(§2) Each of the cultured transformants was washed with KRB buffer and suspended in 40 ml of KRB buffer containing 1 mM IBMX, and left at room temperature for 5 minutes. […] Then, 20 ml of cell lysis buffer was added for cell lysis, and the cell lysates were applied to a cAMP assay kit (Molecular Device, USA) to measure cAMP concentrations using a Victor (PERKIN ELMER®, USA). EC50 values were calculated therefrom, and compared to each other (Table 3).

[4] = biological target: T2, human glucagon receptor (Homo sapiens, UniProt P47871); assay: cAMP response in CHO cell line expressing human glucagon receptor (CHO/GCGR); assay type: cell-based; settings: Table 3, Fc conjugates, GLP-1, glucagon, 37° C. for 1 hour
T2 construct: host or cells: CHO DG44
Description: The PCR product was cloned into the known animal cell expression vector x0GC/dhfr to prepare a recombinant vector x0GC/GCGR.
CHO DG44 cell line cultured in DMEM/F12 (10% FBS) medium was transfected with the recombinant vector x0GC/GCGR using LIPOFECTAMINE®, and cultured in a selection medium containing 1 mg/mL G418 and 10 nM methotraxate.
as §1, §2

T1 sequence (P43220 24-463): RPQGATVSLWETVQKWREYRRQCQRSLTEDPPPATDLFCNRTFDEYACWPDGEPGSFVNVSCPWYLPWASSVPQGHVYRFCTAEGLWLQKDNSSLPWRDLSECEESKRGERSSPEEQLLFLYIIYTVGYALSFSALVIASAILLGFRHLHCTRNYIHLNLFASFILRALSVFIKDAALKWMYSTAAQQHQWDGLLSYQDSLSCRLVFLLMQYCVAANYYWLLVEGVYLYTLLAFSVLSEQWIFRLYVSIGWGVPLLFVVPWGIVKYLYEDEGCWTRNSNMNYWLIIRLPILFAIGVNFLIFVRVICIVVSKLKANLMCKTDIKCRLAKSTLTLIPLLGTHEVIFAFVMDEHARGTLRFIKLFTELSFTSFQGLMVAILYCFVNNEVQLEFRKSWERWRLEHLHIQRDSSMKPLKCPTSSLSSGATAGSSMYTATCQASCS
T2 sequence (P47871 26-477): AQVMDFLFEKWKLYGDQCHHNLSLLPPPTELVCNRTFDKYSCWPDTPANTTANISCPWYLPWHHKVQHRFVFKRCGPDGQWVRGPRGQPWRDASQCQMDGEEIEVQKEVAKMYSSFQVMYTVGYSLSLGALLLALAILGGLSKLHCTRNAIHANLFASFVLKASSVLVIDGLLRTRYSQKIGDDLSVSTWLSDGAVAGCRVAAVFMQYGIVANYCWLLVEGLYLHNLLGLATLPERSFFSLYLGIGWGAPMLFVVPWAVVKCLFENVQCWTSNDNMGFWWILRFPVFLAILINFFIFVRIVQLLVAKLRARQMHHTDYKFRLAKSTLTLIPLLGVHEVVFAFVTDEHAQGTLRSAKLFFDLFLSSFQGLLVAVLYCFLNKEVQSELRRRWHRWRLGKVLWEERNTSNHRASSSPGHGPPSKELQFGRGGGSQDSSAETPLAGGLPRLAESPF

Molecule	weight loss [1]	side-effect [2]	EC50 [3]	EC50 [4]
CCCCCCCCCCC[C@@H](C[C@@H]1OC(=O)[C@H]1CCCCCC)OC(=O)[C@H](CC(C)C)NC=O [Orlistat]	4 kg	–	–	–
Cc1c(C(=O)NN2CCCCC2)nn(-c2ccc(Cl)cc2Cl)c1-c1ccc(Cl)cc1 [Rimonabant]	–	side-effect of central nerve disorder	–	–
CC(C)CC(N(C)C)C1(c2ccc(Cl)cc2)CCC1 (stereo not drawn) [Sibutramine]	–	cardiovascular side-effects	–	–
SEQ ID NO. 23 - Fc conjugates: conjugate of oxyntomodulin derivative (SEQ ID NO. 23), cysteine 24, MAL-10K-ALD PEG and immunoglobulin Fc (HXQGTFTSDYSKYLDEKRAKEFVCWLMNT; not fully specified; conjugate chemistry not built; chains of the parent or of the whole protein)	–	–	0.0054 µM	0.0158 µM
SEQ ID NO. 33 - Fc conjugates: conjugate of oxyntomodulin derivative (SEQ ID NO. 33), cysteine 30, MAL-10K-ALD PEG and immunoglobulin Fc (HXQGTFTSDYAKYLDEKRAKEFVQWLMNTC; conjugate chemistry not built; chains of the parent or of the whole protein)	–	–	0.0117 µM	0.0859 µM
SEQ ID NO. 34 - Fc conjugates: conjugate of oxyntomodulin derivative (SEQ ID NO. 34), cysteine 30, MAL-10K-ALD PEG and immunoglobulin Fc (YXQGTFTSDYSKYLDEKRAKEFVQWLMNTC; conjugate chemistry not built; chains of the parent or of the whole protein)	–	–	0.168 µM	0.008 µM
